Results reported in patent publication US20060142192A1 (ZymoGenetics, published 2006).

Tests used:
Test in all cases: flow cytometry, biotinylated IL-17C (1 ug/ml) + SA-PE on transiently transfected 293fb cells
human ZcytoR21x1 = target: T1, human ZcytoR21x1 (human, UniProt Q8NFR9 24-667)
T1 construct: also called hcytor21x1; IL-17RE
T1 sequence: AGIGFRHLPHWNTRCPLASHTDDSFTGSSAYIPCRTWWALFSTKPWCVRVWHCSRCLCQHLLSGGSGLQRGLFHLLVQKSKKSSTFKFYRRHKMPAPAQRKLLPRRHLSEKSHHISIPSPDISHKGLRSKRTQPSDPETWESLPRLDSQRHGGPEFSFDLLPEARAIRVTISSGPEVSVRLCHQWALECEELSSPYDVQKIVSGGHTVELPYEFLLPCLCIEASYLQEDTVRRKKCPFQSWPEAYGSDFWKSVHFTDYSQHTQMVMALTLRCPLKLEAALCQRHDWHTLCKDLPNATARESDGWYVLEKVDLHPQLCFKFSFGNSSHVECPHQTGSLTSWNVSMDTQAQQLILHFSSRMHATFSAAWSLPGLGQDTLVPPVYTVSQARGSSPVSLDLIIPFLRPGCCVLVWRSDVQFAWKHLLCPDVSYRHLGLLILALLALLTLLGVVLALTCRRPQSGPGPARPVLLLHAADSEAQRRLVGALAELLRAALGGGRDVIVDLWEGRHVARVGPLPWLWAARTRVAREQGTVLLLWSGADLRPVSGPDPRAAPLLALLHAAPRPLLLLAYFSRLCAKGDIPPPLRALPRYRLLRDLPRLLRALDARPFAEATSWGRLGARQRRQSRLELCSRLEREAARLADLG
Protocol: (§1) 293fb cells that had been transfected with expression vectors encoding human ZcytoR21x1 and ZcytoR21x2 were assessed for their ability to bind biotinylated human IL-17C. Control transfections included 1) no DNA transfection, 2) vector only (pzmp11), and 3) human IL17R. 10⁶ cells were removed from transfected suspension cultures at day 1, day 2, day 3, and day 5. Cells were pelleted and resuspended in 100 ul of staining media (SM), which is HBSS plus 1 mg/ml bovine serum albumin (BSA), 10 mM Hepes, and 0.1% sodium azide (w/v). Biotinylated human IL-17C was incubated with the cells on ice for 45 minutes at a concentration of 1 ug/ml. An APC conjugated anti-human CD8 antibody (BD Pharmingen; cat.#555369) was also added at 1:25 dilution. After 30 minutes, excess cytokine and antibody was washed away with SM and the cells were incubated with a 1:100 dilution of streptavidin conjugated to phycoerythrin (SA-PE; BD Pharmingen; cat# 554061) for 30 minutes on ice. Excess SA-PE was washed away and cells were analyzed by flow cytometry.
(§2) The amount of cytokine binding was detected from the change in the mean fluorescence intensity of the cytokine staining relative to negative controls —1) no DNA transfection and 2) vector only. […] Binding was also seen to human IL-17R.

human IL-17R = target: T2, human IL-17R (human, UniProt Q96F46 33-866)
T2 construct: whole, on cells
T2 sequence (looked up): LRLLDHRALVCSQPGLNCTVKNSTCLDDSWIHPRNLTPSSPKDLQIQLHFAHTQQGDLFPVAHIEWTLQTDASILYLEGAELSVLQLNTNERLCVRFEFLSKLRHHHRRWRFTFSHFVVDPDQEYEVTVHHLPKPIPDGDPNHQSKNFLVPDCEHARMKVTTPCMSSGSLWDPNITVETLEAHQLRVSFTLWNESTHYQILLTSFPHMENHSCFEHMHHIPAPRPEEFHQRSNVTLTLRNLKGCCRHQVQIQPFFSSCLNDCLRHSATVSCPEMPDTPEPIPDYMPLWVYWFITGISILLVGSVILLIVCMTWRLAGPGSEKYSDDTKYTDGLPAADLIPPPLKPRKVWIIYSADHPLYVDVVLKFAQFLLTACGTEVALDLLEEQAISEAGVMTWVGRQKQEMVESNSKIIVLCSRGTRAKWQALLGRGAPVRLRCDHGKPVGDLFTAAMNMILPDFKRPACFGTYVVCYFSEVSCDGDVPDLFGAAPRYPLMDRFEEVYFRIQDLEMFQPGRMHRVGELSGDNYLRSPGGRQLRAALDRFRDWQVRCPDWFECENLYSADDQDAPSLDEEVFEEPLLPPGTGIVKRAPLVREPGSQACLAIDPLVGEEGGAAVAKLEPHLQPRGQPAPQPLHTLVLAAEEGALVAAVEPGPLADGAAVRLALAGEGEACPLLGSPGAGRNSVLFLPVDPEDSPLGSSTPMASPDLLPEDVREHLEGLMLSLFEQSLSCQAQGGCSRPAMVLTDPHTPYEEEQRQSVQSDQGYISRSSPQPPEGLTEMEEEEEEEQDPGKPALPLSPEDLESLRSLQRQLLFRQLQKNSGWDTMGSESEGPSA
Protocol: as §1, §2

human ZcytoR21x2 = target: T3, human ZcytoR21x2 (human, UniProt Q8NFR9 24-667)
T3 construct: also called hcytor21x2
T3 sequence: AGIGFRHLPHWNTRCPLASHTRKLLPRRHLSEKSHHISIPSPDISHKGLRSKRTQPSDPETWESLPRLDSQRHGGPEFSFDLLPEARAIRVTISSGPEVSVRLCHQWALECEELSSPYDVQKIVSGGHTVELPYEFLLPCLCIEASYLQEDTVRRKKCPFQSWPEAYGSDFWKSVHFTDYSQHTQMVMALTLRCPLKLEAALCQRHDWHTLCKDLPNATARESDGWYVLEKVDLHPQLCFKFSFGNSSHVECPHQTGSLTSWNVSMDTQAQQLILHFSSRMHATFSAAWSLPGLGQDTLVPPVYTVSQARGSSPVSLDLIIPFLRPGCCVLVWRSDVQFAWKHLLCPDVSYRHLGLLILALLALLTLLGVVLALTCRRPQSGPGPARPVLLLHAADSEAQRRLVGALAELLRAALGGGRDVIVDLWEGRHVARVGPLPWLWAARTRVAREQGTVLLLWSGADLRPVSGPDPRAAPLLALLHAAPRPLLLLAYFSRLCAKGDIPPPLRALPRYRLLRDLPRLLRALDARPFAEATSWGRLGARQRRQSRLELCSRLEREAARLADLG
Protocol: as §1, §2

- binding result (human ZcytoR21x1): binds
- binding result (human IL-17R): binds
- binding result (human ZcytoR21x2): binds
B1: human IL-17C (ligand)
chain: HHDPSLRGHPHSHGTPHCYSAEELPLGQAPPHLLARGAKWGQALPVALVSSLEAASHRGRHERPSATTQCPVLRPEEVLEADTHQRSISPWRYRVDTDEDRYPQKLAFAECLCRGCIDARTGRETAALNSVRLLQSLLVLRRRPCSRDGSGLPTPGAFAFHTEFIHVPVGCTCVLPRSV
modifications: biotin label in the binding assays (sites not given); unlabelled in the signalling assays
notes: it is the last residue of the open reading frame as I know it; Recombinant forms made carried a C-terminal Glu-Glu tag (BHK) or His tag (293F); also called biotinylated human IL-17C; human IL-17C (A903G)
